Experiments:
[1] = biological target: T1, TNFRSF25 on lymphocytes in human PBMCs (human, UniProt Q93038 25-417); assay: flow cytometry MFI on NK cells of human PBMCs, IL12+IL18 stimulation 24 h, APC anti-human Fc
T1 construct: whole, on cells; also called TNFRSF25 on CD4+ and CD8+ T cells and NK cells
T1 sequence (looked up): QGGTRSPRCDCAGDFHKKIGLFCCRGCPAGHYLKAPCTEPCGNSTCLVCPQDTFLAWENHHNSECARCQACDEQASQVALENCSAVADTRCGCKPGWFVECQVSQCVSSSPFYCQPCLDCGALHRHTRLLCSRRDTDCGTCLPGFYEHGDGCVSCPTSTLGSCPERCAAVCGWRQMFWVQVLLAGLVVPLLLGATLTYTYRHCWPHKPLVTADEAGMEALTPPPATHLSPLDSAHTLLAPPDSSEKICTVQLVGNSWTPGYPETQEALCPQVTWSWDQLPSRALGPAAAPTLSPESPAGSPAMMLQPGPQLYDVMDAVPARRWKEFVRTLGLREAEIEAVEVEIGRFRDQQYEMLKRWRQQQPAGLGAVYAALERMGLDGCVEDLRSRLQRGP
Description: (§1) Human PBMCs were stimulated with either IL12+IL18 or anti-CD3/CD28 for 24 hours to assess binding of anti-TNFRSF25 to lymphocyte subsets.
(§2) Figure 9: FIG. 9. […] Figure 10: FIG. 10.

[2] = biological target: T1, TNFRSF25 on lymphocytes in human PBMCs; assay: flow cytometry MFI on NK cells of human PBMCs, no stimulation, APC anti-human Fc
OX40 = biological target: T2, OX40; assay: flow cytometry on engineered mammalian cells overexpressing OX40, APC anti-human Fc
T2 construct: member of group m24; also called OX40 overexpressed in engineered mammalian cells
T2 chain: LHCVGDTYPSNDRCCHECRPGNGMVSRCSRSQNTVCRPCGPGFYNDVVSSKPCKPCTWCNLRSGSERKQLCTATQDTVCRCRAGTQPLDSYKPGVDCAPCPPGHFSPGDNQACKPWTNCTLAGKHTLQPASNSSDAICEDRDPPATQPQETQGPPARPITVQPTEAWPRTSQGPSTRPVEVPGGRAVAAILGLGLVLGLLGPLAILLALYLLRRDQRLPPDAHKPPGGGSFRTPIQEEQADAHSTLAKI

[3] = biological target: T1, TNFRSF25 on lymphocytes in human PBMCs; assay: flow cytometry MFI on CD4+ T cells of human PBMCs, IL12+IL18 stimulation 24 h, APC anti-human Fc
Description: as §1, §2

[4] = biological target: T1, TNFRSF25 on lymphocytes in human PBMCs; assay: flow cytometry MFI on CD8+ T cells of human PBMCs (panel 1003_CD8+T), no stimulation, APC anti-human Fc
4-1BB = biological target: T3, 4-1BB; assay: flow cytometry on engineered mammalian cells overexpressing 4-1BB, APC anti-human Fc
T3 construct: member of group m24; also called 4-1BB overexpressed in engineered mammalian cells
T3 sequence (chain, as listed by the source limits assumed): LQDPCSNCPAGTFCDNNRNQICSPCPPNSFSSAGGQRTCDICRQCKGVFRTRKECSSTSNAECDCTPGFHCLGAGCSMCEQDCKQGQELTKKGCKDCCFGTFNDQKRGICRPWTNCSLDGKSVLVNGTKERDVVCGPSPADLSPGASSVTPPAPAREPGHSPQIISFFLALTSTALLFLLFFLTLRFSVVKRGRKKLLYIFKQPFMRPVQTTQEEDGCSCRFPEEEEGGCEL

[5] = biological target: T4, biotinylated recombinant human TNFRSF25-His tagged (Acro #TN5-H52H3) (human, UniProt Q93038 25-199, biotinylated); assay: SPR (Biacore 8K); biotinylated TNFRSF25-His on streptavidin chip SA, SL-061 flowed; 1:1 binding
T4 construct: treated as the same protein; also called recombinant biotin-conjugated human TNFRSF25 protein; DR3
T4 sequence (looked up): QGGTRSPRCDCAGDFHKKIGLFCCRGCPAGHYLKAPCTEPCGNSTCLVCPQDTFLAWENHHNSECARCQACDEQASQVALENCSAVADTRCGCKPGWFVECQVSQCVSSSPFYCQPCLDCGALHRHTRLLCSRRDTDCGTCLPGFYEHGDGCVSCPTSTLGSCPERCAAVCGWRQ
Description: (FIG. 5A) BLI assay was performed using the Octet Red 96e instrument. Streptavidin biosensors were loaded with biotinylated recombinant human TNFRSF25-His tagged (Acro #TN5-H52H3) as the ligand. […] (FIG. 5B) SPR was performed on a Biacore 8K instrument.

LTbR = biological target: T5, LTbR; assay: flow cytometry on engineered mammalian cells overexpressing LTbR, APC anti-human Fc
T5 construct: member of group m24; also called LTbR overexpressed in engineered mammalian cells

[6] = biological target: T4, biotinylated recombinant human …; assay: MSD competition; TNFRSF25 on plate, antibody titrated, then recombinant TL1A (TL1A-rabbit Fc) as competitor
Description: Figure 6: FIG. 6. […] Human TNFRSF25 was precoated on MSD assay plates followed by incubating with various concentrations of anti-TNFRSF25 antibodies.

[7] = biological target: T1, TNFRSF25 on lymphocytes in human PBMCs; assay: flow cytometry MFI on CD4+ T cells of human PBMCs, no stimulation, APC anti-human Fc
[8] = biological target: T6, biotinylated recombinant human FcRn-His tagged protein (Acro #FCM-H82W7) (human, UniProt P55899 24-297; P61769 21-119, biotinylated); assay: BLI/Octet; biotinylated human FcRn-His on streptavidin biosensor; pH 6.0
T6 construct: also called hFcRn; neonatal Fc receptor
T6 sequence (P55899 24-297 limits assumed, chain 1 of 2): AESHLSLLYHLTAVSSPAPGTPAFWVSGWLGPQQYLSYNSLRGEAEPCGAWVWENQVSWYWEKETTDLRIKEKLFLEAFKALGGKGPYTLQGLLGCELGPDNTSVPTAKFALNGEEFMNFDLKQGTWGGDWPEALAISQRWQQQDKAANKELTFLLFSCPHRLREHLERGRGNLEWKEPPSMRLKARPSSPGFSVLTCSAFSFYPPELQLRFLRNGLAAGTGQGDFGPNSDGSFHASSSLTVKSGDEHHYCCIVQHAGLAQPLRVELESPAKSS
T6 sequence (P61769 21-119 limits assumed, chain 2 of 2): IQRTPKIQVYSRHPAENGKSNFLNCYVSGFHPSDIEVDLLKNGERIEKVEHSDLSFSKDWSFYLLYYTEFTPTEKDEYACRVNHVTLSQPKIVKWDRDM
Description: Figure 5D: FIG. 5D. FcRn binding kinetics by anti-TNFRSF25 antibodies. BLI assay was performed using the Octet Red 96e instrument. Streptavidin biosensors were loaded with biotinylated recombinant human(h) FcRn-His tagged protein (Acro #FCM-H82W7) as the ligand. During the association phase, biosensors were incubated with anti-DR3 candidate antibodies at various concentrations for 600 seconds, followed by a 600-second dissociation phase.
To detect binding of certain whole antibodies to the neonatal Fc receptor (FcRn) at neutral and acidic pH conditions, streptavidin biosensors were loaded with biotinylated recombinant human FcRn-His tagged protein (Acro #FCM-H82W7) as the ligand. During the association phase, biosensors were incubated with anti-TNFRSF25 antibodies at various concentrations for 600 seconds, followed by a 600 second dissociation phase.

[9] = biological target: T1, TNFRSF25 on lymphocytes in human PBMCs; assay: flow cytometry MFI on NK cells of human PBMCs, anti-CD3/CD28 stimulation 24 h, APC anti-human Fc
Description: as §1, §2

B1: SL-061 (antibody, human IgG1, kappa)
heavy: QVQLQQSGPGLVKPSQTLSLTCAISGDSVSGYSAAWNWIRQSPSRGLEWLGRTYYRSKWYNDYAVSVKSRITINPDTSKNQFSLQLNSVTPEDTAVYYCARDYYGSESYYNRGYYYYGMDVWGQGTTVTVSSASTKGPSVFPLAPSSKSTSGGTAALGCLVKDYFPEPVTVSWNSGALTSGVHTFPAVLQSSGLYSLSSVVTVPSSSLGTQTYICNVNHKPSNTKVDKKVEPKSCDKTHTCPPCPAPEAAGAPSVFLFPPKPKDTLMISRTPEVTCVVVDVSHEDPEVKFNWYVDGVEVHNAKTKPREEQYNSTYRVVSVLTVLHQDWLNGKEYKCKVSNKALPAPIEKTISKAKGQPREPQVYTLPPSREEMTKNQVSLTCLVKGFYPSDIAVEWESNGQPENNYKTTPPVLDSDGSFFLYSKLTVDKSRWQQGNVFSCSVMHEALHNHYTQKSLSLSPGK
light: AIQLTQSPSSLSASVGDRVTITCRASPGISSALAWYQQKPGKAPKLLMYDESSQESGVPSRFSGSGSGTDFTLTISSLQPEDFATYYCQQFNDYPLTFGGGTKVEIKRTVAAPSVFIFPPSDEQLKSGTASVVCLLNNFYPREAKVQWKVDNALQSGNSQESVTEQDSKDSTYSLSSTLTLSKADYEKHKVYACEVTHQGLSSPVTKSFNRGEC
notes: Same variable regions as SL-033; IgG1 with L234A/L235A+G237A; also called clone 061; SL-061 (L234A/L235A+G237A)
EC50 [1]: 0.065 nM
EC50 [2]: 0.078 nM
binding result (OX40): no binding (tested: about 20 nM)
EC50 [3]: 0.035 nM
EC50 [4]: 0.068 nM
binding result (4-1BB): no binding (tested: about 20 nM)
Kd [5]: 1.36 pM
binding result (LTbR): no binding (tested: about 20 nM)
IC50 [6]: 0.056 nM
EC50 [7]: 0.035 nM
Kd [8]: 4.41 nM
koff [8]: 0.00104 s⁻¹
kon [8]: 235000 M⁻¹ s⁻¹
EC50 [9]: 0.054 nM

Source: patent US12319742 (SHATTUCK LABS, dated 2025)
